B1: Septin-12 (Homo sapiens), Q8IYM1 (parent)
chain: MDPLRRSPSPCLSSQPSSPSTPPCEMLGPVGIEAVLDQLKIKAMKMGFEFNIMVVGQSGLGKSTMVNTLFKSKVWKSNPPGLGVPTPQTLQLHSLTHVIEEKGVKLKLTVTDTPGFGDQINNDNCWDPILGYINEQYEQYLQEEILITRQRHIPDTRVHCCVYFVPPTGHCLRPLDIEFLQRLCRTVNVVPVIARADSLTMEEREAFRRRIQQNLRTHCIDVYPQMCFDEDINDKILNSKLRDRIPFAVVGADQEHLVNGRCVLGRKTKWGIIEVENMAHCEFPLLRDLLIRSHLQDLKDITHNIHYENYRVIRLNESHLLPRGPGWVNLAPASPGQLTTPRTFKVCRGAHDDSDDEF
partner: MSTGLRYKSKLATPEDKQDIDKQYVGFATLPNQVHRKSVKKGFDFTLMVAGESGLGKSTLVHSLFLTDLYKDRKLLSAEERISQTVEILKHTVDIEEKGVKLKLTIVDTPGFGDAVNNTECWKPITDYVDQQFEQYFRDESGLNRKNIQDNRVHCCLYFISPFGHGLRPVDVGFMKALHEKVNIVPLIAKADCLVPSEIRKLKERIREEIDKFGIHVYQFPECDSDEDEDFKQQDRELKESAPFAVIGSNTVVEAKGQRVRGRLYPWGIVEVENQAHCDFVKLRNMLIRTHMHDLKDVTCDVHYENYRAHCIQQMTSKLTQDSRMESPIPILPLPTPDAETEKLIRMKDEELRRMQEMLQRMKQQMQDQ
B2: LHFPL tetraspan subfamily member 5 protein (Homo sapiens), Q8TAF8 (parent)
chain: MVKLLPAQEAAKIYHTNYVRNSRAVGVMWGTLTICFSVLVMALFIQPYWIGDSVNTPQAGYFGLFSYCVGNVLSSELICKGGPLDFSSIPSRAFKTAMFFVALGMFLIIGSIICFSLFFICNTATVYKICAWMQLAAATGLMIGCLVYPDGWDSSEVRRMCGEQTGKYTLGHCTIRWAFMLAILSIGDALILSFLAFVLGYRQDKLLPDDYKADGTEEV
partner: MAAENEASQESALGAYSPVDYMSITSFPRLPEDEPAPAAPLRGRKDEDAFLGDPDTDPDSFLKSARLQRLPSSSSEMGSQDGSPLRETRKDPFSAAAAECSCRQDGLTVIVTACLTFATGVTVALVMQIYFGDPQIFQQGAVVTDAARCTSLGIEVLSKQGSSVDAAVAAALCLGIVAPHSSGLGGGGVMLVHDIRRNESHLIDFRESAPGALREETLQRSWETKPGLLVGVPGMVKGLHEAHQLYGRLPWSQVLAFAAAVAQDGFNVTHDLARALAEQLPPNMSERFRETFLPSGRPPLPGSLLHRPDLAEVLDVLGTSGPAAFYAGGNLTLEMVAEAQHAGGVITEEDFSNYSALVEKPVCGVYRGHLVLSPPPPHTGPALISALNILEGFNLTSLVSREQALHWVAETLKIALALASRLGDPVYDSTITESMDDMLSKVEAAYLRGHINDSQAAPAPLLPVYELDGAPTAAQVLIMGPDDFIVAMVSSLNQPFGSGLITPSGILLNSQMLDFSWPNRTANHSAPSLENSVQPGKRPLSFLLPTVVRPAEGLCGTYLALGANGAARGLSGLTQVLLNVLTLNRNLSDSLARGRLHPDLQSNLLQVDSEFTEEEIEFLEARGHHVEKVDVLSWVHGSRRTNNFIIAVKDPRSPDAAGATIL
B3: Retinoic acid receptor alpha (Homo sapiens), P10276 (parent)
chain: MASNSSSCPTPGGGHLNGYPVPPYAFFFPPMLGGLSPPGALTTLQHQLPVSGYSTPSPATIETQSSSSEEIVPSPPSPPPLPRIYKPCFVCQDKSSGYHYGVSACEGCKGFFRRSIQKNMVYTCHRDKNCIINKVTRNRCQYCRLQKCFEVGMSKESVRNDRNKKKKEVPKPECSESYTLTPEVGELIEKVRKAHQETFPALCQLGKYTTNNSSEQRVSLDIDLWDKFSELSTKCIIKTVEFAKQLPGFTTLTIADQITLLKAACLDILILRICTRYTPEQDTMTFSDGLTLNRTQMHNAGFGPLTDLVFAFANQLLPLEMDDAETGLLSAICLICGDRQDLEQPDRVDMLQEPLLEALKVYVRKRRPSRPHMFPKMLMKITDLRSISAKGAERVITLKMEIPGSMPPLIQEMLENSEGLDTLSGQPGGGGRDGGGLAPPPGSCSPSLSPSSNRSSPATHSP
partner: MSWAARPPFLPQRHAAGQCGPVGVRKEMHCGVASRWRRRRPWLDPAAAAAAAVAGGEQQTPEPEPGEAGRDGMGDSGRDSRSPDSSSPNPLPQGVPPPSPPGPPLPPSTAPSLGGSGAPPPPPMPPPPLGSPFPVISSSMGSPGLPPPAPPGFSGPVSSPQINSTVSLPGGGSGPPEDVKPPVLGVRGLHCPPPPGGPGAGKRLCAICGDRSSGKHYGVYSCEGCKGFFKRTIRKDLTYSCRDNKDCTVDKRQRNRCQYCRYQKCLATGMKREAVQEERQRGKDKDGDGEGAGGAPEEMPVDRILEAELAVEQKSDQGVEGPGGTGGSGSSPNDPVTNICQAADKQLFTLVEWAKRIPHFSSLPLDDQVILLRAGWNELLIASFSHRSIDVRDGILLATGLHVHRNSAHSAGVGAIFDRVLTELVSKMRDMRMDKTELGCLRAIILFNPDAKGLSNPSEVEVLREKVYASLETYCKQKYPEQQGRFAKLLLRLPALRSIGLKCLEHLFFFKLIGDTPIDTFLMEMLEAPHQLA

Eight variants from IntAct's records for PubMed 31515488 can be followed below.

In one experiment the parent is B1. To be noted: with sept5_human SEPTIN5, Q99719.
Regarding MDPLRRSPSPCLSSQPSSPSTPPCEMLGPVGIEAVLDQLKIKAMKMGFEFNIMVVGQSGLGKSTMVNTLFKSKVWKSNPPGLGVPTPQTLQLHSLTHVIEEKGVKLKLTVTDTPGFGDQINNDNCWDPILGYINEQYEQYLQEEILITRQRHIPDTRVHCCMYFVPPTGHCLRPLDIEFLQRLCRTVNVVPVIARADSLTMEEREAFRRRIQQNLRTHCIDVYPQMCFDEDINDKILNSKLRDRIPFAVVGADQEHLVNGRCVLGRKTKWGIIEVENMAHCEFPLLRDLLIRSHLQDLKDITHNIHYENYRVIRLNESHLLPRGPGWVNLAPASPGQLTTPRTFKVCRGAHDDSDDEF [V162M], the “effect of a mutation on the interaction” value was “disrupting interaction strength”.

MDPLRRSPSPCLSSQPSSPSTPPCEMLGPVGIEAVLDQLKIKAMKMGFEFNIMVVGQSGLGKSTMVNTLFKSKVWKSNPPGLGVPTPQTLQLHSLTHVIEEKGVKLKLTVTDTPGFGDQINNDNCWDPILGYINEQYEQYLQEEILITRQRHIPDTRVHCCVYFVPPTGHCLRPLDIEFLQRLSRTVNVVPVIARADSLTMEEREAFRRRIQQNLRTHCIDVYPQMCFDEDINDKILNSKLRDRIPFAVVGADQEHLVNGRCVLGRKTKWGIIEVENMAHCEFPLLRDLLIRSHLQDLKDITHNIHYENYRVIRLNESHLLPRGPGWVNLAPASPGQLTTPRTFKVCRGAHDDSDDEF [C184S]: the “effect of a mutation on the interaction” value is given as “with no effect”.

On to MDPLRRSPSPCLSSQPSSPSTPPCEMLGPVGIEAVLDQLKIKAMKMGFEFNIMVVGQSGLGKSTMVNTLFKSKVWKSNPPGLGVPTPQTLQLHSLTHVIEEKGVKLKLTVTDTPGFGDQINNDNCWDPILGYINEQYEQYLQEEILITRQRHIPDTRVHCCVYFVPPTGHCLRPLDIEFLQRLCRTVNVVPVIARANSLTMEEREAFRRRIQQNLRTHCIDVYPQMCFDEDINDKILNSKLRDRIPFAVVGADQEHLVNGRCVLGRKTKWGIIEVENMAHCEFPLLRDLLIRSHLQDLKDITHNIHYENYRVIRLNESHLLPRGPGWVNLAPASPGQLTTPRTFKVCRGAHDDSDDEF [D197N], for which the “effect of a mutation on the interaction” value was “disrupting interaction strength”. Consider MDPLRRSPSPCLSSQPSSPSTPPCEMLGPVGIEAVLDQLKIKAMKMGFEFNIMVVGQSGLGKSTMVNTLFKSKVWKSNPPGLGVPTPQTLQLHSLTHVIEEKGVKLKLTVTDTPGFGDQINNDNCWDPILGYINEQYEQYLQEEILITRQRHIPDTRVHCCVYFVPPTEHCLRPLDIEFLQRLCRTVNVVPVIARADSLTMEEREAFRRRIQQNLRTHCIDVYPQMCFDEDINDKILNSKLRDRIPFAVVGADQEHLVNGRCVLGRKTKWGIIEVENMAHCEFPLLRDLLIRSHLQDLKDITHNIHYENYRVIRLNESHLLPRGPGWVNLAPASPGQLTTPRTFKVCRGAHDDSDDEF [G169E], for which the “effect of a mutation on the interaction” value is reported as “disrupting interaction strength”. On the same count and under the same terms, then MDPLRRSPSPCLSSQPSSPSTPPCEMLGPVGIEAVLDQLKIKAMKMGFEFNIMVVGQSGLGKSTMVNTLFKSKVWKSNPPGLGVPTPQTLQLHSLTHVIEEKGVKLKLTVKDTPGFGDQINNDNCWDPILGYINEQYEQYLQEEILITRQRHIPDTRVHCCVYFVPPTGHCLRPLDIEFLQRLCRTVNVVPVIARADSLTMEEREAFRRRIQQNLRTHCIDVYPQMCFDEDINDKILNSKLRDRIPFAVVGADQEHLVNGRCVLGRKTKWGIIEVENMAHCEFPLLRDLLIRSHLQDLKDITHNIHYENYRVIRLNESHLLPRGPGWVNLAPASPGQLTTPRTFKVCRGAHDDSDDEF [T111K], with “disrupting interaction strength”. Consider MDPLRRSPSPCLSSQPSSPSTPPCEMLGPVGIEAVLDQLKIKAMKMGFEFNIMVVGQSGLGKSTMVNTLFKSKVWKSNPPGLGVPTPQTLQLHSLTHVIEEKGVKLKLTVTDTPGFGDQINNDNCWDPILGYINEQYEQYLQEEILITRQRHIPDTRVHCCVYFVPPTGHCLRPLDIEFLQRLCRTVNVVPVIARADSLTMEEQEAFRRRIQQNLRTHCIDVYPQMCFDEDINDKILNSKLRDRIPFAVVGADQEHLVNGRCVLGRKTKWGIIEVENMAHCEFPLLRDLLIRSHLQDLKDITHNIHYENYRVIRLNESHLLPRGPGWVNLAPASPGQLTTPRTFKVCRGAHDDSDDEF [R204Q], for which the “effect of a mutation on the interaction” value is recorded as “disrupting interaction strength”.

Variants of B2 are the subject of another experiment. To be noted: with ggt7_human GGT7, Q9UJ14.
Take MVKLLPAQEAAKIYHTNYVRNSRAVGVMWGTLTICFSVLVMALFIQPYWIGDSVNTPQAGYFGLFSYCVGNVLSSELICKGGPLDFSSIPSRAFKTAMFFVALGMFLIIGSIICFSLFFICNTATVYKICAWMQLAAATGLMIGCLVYPDGWDSSEVRRMCGEQTGKYTLGHCTIRWAFMLAILSIGDALILSFLAFVLGYRQDNLLPDDYKADGTEEV [K205N]: the “effect of a mutation on the interaction” value is “with no effect”.

In the next experiment the parent is B3. To be noted: with rxrb_human RXRB.
On to MASNSSSCPTPGGGHLNGYPVPPYAFFFPPMLGGLSPPGALTTLQHQLPVSGYSTPSPATIETQSSSSEEIVPSPPSPPPLPRIYKPCFVCQDKSSGYHYGVSACEGCKGFFRRSIQKNMVYTCHRDKNCIINKVTRNRCQYCRLQKCFEVGMSKESVRNDRNKKKKEVPKPECSESYTLTPEVGELIEKVRKAHQETFPALCQLGKYTTNNSSEQRVSLDIDLWDKFSELSTKCIIKTVEFAKQLPGFTTLTIADQITLLKAACLDILILRICTRYTPEQDTMTFSDGLTLNRTQMHNAGFGPLTDLVFAFANQLLRLEMDDAETGLLSAICLICGDRQDLEQPDRVDMLQEPLLEALKVYVRKRRPSRPHMFPKMLMKITDLRSISAKGAERVITLKMEIPGSMPPLIQEMLENSEGLDTLSGQPGGGGRDGGGLAPPPGSCSPSLSPSSNRSSPATHSP [P318R], for which the “effect of a mutation on the interaction” value is recorded as “with no effect”.
